Where no end group is shown, it is not given here.
How the values were obtained:
FN matrix assembly = assay: FN matrix accumulation in the presence of phage clones (immunofluorescence, immunoblots of DOC-insoluble FN); assay type: cell-based
Excerpt: Beyond the ability of the isolated phage clones to bind FN matrix, their potential capacity to modulate matrix accumulation was considered. Given that the clones were panned against a FN fragment containing the assembly domain, it was questioned if they might modulate FN matrix assembly.

FN fibrils [1] = biological target: T1, FN fibrils (Mus musculus, UniProt P11276); assay: Fusion proteins tested in fibroblast culture for FN fibril binding; assay type: cell-based
T1 construct: endogenous in cells; host or cells: NIH 3T3 fibroblasts
T1 sequence (P11276 33-2477): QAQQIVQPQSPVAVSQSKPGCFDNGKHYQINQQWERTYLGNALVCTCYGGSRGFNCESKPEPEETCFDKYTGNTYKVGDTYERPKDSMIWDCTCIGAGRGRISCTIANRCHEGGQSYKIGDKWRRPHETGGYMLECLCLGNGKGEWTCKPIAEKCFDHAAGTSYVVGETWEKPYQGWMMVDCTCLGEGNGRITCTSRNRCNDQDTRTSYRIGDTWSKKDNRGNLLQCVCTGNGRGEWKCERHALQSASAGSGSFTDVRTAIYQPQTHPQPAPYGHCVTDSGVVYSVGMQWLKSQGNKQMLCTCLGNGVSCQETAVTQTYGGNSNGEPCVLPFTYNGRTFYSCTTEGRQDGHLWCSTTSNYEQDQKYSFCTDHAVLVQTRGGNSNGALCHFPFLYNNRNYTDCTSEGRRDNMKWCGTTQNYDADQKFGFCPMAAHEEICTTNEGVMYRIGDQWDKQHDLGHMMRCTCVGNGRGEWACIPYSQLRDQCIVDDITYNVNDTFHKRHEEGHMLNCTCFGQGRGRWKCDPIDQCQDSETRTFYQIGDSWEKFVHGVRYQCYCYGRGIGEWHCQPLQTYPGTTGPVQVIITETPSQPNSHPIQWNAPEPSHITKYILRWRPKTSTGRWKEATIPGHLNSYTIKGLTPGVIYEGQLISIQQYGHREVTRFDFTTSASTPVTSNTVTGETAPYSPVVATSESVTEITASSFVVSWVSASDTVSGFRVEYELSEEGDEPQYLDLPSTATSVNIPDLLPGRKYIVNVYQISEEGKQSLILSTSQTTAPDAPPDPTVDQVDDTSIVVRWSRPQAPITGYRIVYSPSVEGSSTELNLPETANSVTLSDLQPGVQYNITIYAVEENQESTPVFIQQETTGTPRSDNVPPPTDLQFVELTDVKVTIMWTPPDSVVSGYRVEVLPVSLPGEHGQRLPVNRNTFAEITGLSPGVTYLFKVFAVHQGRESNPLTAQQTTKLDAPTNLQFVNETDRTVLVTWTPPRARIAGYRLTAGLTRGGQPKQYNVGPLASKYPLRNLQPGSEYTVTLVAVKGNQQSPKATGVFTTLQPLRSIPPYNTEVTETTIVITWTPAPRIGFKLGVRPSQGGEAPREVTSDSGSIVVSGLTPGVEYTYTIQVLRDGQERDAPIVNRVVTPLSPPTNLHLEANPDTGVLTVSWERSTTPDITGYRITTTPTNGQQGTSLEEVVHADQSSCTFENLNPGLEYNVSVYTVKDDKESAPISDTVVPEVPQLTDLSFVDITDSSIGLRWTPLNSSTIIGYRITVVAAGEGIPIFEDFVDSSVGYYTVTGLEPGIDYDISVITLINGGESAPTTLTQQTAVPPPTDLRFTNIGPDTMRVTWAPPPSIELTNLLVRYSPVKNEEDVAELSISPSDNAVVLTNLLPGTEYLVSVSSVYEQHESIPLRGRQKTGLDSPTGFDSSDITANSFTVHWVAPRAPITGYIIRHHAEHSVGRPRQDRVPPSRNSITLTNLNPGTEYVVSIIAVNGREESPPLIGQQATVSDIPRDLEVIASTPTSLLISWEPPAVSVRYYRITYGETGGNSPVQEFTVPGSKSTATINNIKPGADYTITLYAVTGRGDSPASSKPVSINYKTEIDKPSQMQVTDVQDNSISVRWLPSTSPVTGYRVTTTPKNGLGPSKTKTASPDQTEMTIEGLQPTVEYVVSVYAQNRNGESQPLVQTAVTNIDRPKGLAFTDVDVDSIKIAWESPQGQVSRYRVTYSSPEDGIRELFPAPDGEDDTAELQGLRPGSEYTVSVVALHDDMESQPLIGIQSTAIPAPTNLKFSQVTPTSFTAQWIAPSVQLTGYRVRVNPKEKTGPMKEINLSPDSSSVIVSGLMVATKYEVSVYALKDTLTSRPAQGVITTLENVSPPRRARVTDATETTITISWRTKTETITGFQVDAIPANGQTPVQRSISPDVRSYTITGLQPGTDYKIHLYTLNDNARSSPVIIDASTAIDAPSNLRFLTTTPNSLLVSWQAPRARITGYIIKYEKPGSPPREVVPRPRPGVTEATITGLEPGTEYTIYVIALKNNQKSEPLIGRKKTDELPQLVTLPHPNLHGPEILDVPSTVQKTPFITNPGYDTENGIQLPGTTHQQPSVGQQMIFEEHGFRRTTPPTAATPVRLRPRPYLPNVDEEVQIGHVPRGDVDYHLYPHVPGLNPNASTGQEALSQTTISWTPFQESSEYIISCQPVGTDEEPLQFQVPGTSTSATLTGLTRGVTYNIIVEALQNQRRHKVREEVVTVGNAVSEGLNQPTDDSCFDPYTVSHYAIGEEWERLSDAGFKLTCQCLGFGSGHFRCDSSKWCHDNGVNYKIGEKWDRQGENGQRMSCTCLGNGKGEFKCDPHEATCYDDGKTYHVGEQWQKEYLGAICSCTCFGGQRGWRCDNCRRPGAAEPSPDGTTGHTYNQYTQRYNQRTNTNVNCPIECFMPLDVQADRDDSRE
Description: (§1) Following purification using glutathione affinity chromatography, the fusion proteins was tested in fibroblast culture to determine if they maintained the properties seen in the phage.

FN matrix accumulation = assay: Fusion proteins tested in fibroblast culture for impact on matrix accumulation; assay type: cell-based
Description: as §1

FN fibrils [2] = biological target: T1, FN fibrils; assay: Phage clones incubated with growing fibroblast cultures actively assembling matrix; overlap of phage and FN signal; assay type: cell-based; conditions: for Manders' coefficient with a higher concentration of phage: high concentration phage stocks
Description: (§2) FIGS. 4A-4C are representative photomicrographs of fixed and stained assembled matrices after clone 2 (1×10^12 pfu/mL) was incubated with NIH 3T3 fibroblasts for 2 days, and specifically stained for FN (4A) and phage (4B), as well as a merge of the two images (4C). Insets in 4A and 4B are maximum intensity projections of a single fibril obtained through confocal microscopy from the S2 condition for FN (4A) and phage (4B).
Phage S2 and S2-based phages, effectively label fibrils as they are being assembled.
(§3) To further analyze the interaction between the isolated phages and FN fibrils, each phage clone was incubated with growing fibroblast cultures that were actively assembling matrix. Monolayers were then stained for both phage and FN and resulting images were analyzed to assess the amount of overlap between phage and FN signal. […] To quantify the extent of phage overlap with FN fibrils, Manders' coefficients were generated, which define the percent overlap between the two image channels. Manders' coefficients reveled the percent overlap of the phage fluorescence with FN was highest for clone S2 (Manders' coefficient 0.91). A summary of all Manders' coefficients and phage characterizations can be found in Table 2.
Clone 2 staining was extremely robust and images of matrix assembled in the presence of a higher concentration of phage appeared to have more coverage of fibrils by phage. […] For clone 12, it appears that adding more phage led to higher background staining. […] This is further supported by confocal images depicting a single fibril from a clone 2 incubation in which there is significant overlap between phage and FN at the level of a single fibril.

FN matrix = assay: Immunoblot comparing effects of S3 and S20 against a control on formation of FN matrix (FIG. 2); assay type: cell-based
Description: FIG. 2 is an immunoblot comparing the effects of S3 and S20 against a control on the formation of FN matrix.
Referring to FIG. 2, when incubated with cells during matrix assembly, S20 can enhance matrix formation by 60%.

FN fibrils [3] = biological target: T1, FN fibrils; assay: Phage binding to FN fibrils of fixed confluent NIH 3T3 fibroblasts (co-staining for M13 phage and FN); assay type: cell-based
Description: Confluent NIH 3T3 fibroblasts, which have been well characterized to assemble a dense, fibrillar FN matrix, were used to test phage binding to FN fibrils. Cells were fixed, blocked, and incubated with individual phage clones, then co-stained with antibodies to M13 phage and FN and imaged. Most phage-monolayers looked like the negative control and contained infrequent phage signals that were not aligned with the FN matrix. Several of the clones generated a pattern of phage staining that had some co-localization with FN fibrils but also appeared to contain some phage aggregates.

[4] = substrate: FN matrix (fibronectin fibrils) assembled by NIH 3T3 fibroblasts (UniProt P11276); assay: cell-based or functional assay
Chain of FN matrix (fibronectin fibrils) assembled by NIH 3T3 fibroblasts (UniProt P11276) (P11276 33-2477 limits assumed): as the sequence (P11276 33-2477) above

[5] = substrate: FN matrix (fibronectin fibrils) assembled by NIH 3T3 fibroblasts (UniProt P11276); assay: phage incubated with fibroblasts assembling matrix; overlap of phage fluorescence with FN stain
[6] = biological target: T2, FN matrix (fibronectin fibrils) assembled by NIH 3T3 fibroblasts (UniProt P11276 33-2477, limits assumed); assay: as above
T2 construct: whole, on cells; Fibrillar, cell-assembled fibronectin matrix; also called FN fibrils
T2 sequence (P11276 33-2477 limits assumed): as the sequence (P11276 33-2477) above
Description: as §2, with “(1×10¹²” for “(1×10^12”
as §3

Molecule: SDITPWWLLAQD [Clone 20, 21, 46]
- FN matrix accumulation by immunofluorescence (FN matrix assembly): increased FN matrix assembly by two-fold

Molecule: GST-S20-GFP: fusion protein of GST, S20 peptide and GFP (SDITPWWLLAQD; not fully specified (N-terminus, C-terminus); also: fusion protein, GST dimerising)
- FN fibril binding (FN fibrils [1]): no detectable FN fibril binding
- impact on matrix accumulation (FN matrix accumulation): neither the S3 or S20 fusion proteins showed any matrix binding capacity or impact on matrix accumulation

Molecule: DYSYFDLWYSDT [Clone 12, 29]
- Manders' coefficient with a higher concentration of phage (FN fibrils [2]): the Manders' coefficient did not indicate higher coverage with inclusion of more phage

Molecule: NHVALWGTGTAS [Clone 3, 5, 27, 28]
- FN matrix accumulation by immunofluorescence (FN matrix assembly): without repressing FN matrix immunofluorescence signal

Molecule: S2-GFP: GST-S2-GFP after cleavage of the GST tag (GSYDWTKLPGLE; not fully specified (C-terminus)) [Clone S2-GFP]
- FN fibril binding (FN fibrils [1]): completely ablated FN fibril binding

Molecule: SDITPWWLLAQD [Clone S20]
- effect on matrix formation (FN matrix): enhances matrix formation
- enhancement of matrix formation (FN matrix; incubated with cells during matrix assembly): 60%

Molecule: GST-S3-GFP: fusion protein of GST, S3 peptide and GFP (NHVALWGTGTAS; not fully specified (N-terminus, C-terminus); also: fusion protein, GST dimerising)
- FN fibril binding (FN fibrils [1]): no detectable FN fibril binding
- impact on matrix accumulation (FN matrix accumulation): neither the S3 or S20 fusion proteins showed any matrix binding capacity or impact on matrix accumulation

Molecule: GSYDWTKLPGLE [Clone 2, 16, 31, 48]
- pattern of phage staining, co-localization with FN matrix (FN fibrils [3]): created a fibrillar pattern that colocalized with the FN matrix better than the other phages
- Manders' coefficient with a higher concentration of phage (FN fibrils [2]): maintenance of the high Manders' coefficient
- Manders' Coefficient (FN fibrils [2]; overlap of the phage fluorescence with FN, growing fibroblast cultures): 0.91
- labeling of FN fibrils with incorporated phage (FN fibrils [2]; phage incubated with fibroblasts as they assembled fibrils): complete labeling of FN fibrils with incorporated phage
- FN matrix accumulation by immunofluorescence (FN matrix assembly): did not appear to impact FN matrix assembly

Molecule: NHVALWGTGTAS [Clone S3]
- effect on matrix formation (FN matrix): inhibits matrix formation

B1: M13 phage clone 20 (20, 21, 46) displaying … (S20) (peptide, not shown: large carriers)
chain: SDITPWWLLAQD
modifications: not fully specified
- matrix formation (FIG. 2 immunoblot) [4]: 60%
- Manders' Coefficient [5]: 0.552

B2: M13 phage clone 1 displaying … (peptide, not shown: large carriers)
chain: VSGYNVMPLNGD
modifications: not fully specified
- Manders' Coefficient [5]: 0.253

B3: M13 phage clone 3 (3, 5, 27, 28) displaying … (S3) (peptide, not shown: large carriers)
chain: NHVALWGTGTAS
modifications: not fully specified
- Manders' Coefficient [5]: 0.527

B4: M13 phage clone 4 (4, 44) displaying … (peptide, not shown: large carriers)
chain: HNQTMWWTFPST
modifications: not fully specified
- Manders' Coefficient [5]: 0.47

B5: M13 phage clone 6 (6, 35) displaying … (peptide, not shown: large carriers)
chain: SITEFNLLPGLW
modifications: not fully specified
- Manders' Coefficient [5]: 0.606

B6: M13 phage clone 7 (7, 22, 38) displaying AHB… (peptide, not shown: large carriers)
chain: AHXRLSGSAPMF-{pIII (M13 phage)}
modifications: not fully specified
- Manders' Coefficient [5]: 0.39

B7: M13 phage clone 9 (9, 42) displaying … (peptide, not shown: large carriers)
chain: HWSGTHALSGRA
modifications: not fully specified
- Manders' Coefficient [5]: 0.588

B8: M13 phage clone 11 displaying … (peptide, not shown: large carriers)
chain: DHVSLSGRSAAM
modifications: not fully specified
- Manders' Coefficient [5]: 0.173

B9: M13 phage clone 19 (19, 24, 32, 41, 45) displaying … (peptide, not shown: large carriers)
chain: DHIPLRGQRVWQ
modifications: not fully specified
- Manders' Coefficient [5]: 0.397

B10: M13 phage clone 23 displaying … (peptide, not shown: large carriers)
chain: YVTNWGSLSGSY
modifications: not fully specified
- Manders' Coefficient [5]: 0.675

B11: M13 phage clone 33 displaying … (peptide, not shown: large carriers)
chain: IAYPTDMSLSYK
modifications: not fully specified
- Manders' Coefficient [5]: 0.56

B12: M13 phage clone 37 displaying … (peptide, not shown: large carriers)
chain: WHVALTGNNLER
modifications: not fully specified
- Manders' Coefficient [5]: 0.698

B13: M13 phage clone 2 (2, 16, 31, 48) displaying GSYDWTKLPGLE (S2) (peptide)
chain: GSYDWTKLPGLE
modifications: not fully specified (C-terminus)
notes: Whole phage particle stood in the assay; also called clone S2; clone s2; not shown: pIII protein of M13 phage; the peptide is its N-terminal fusion
- Manders' Coefficient [6]: 0.913

B14: M13 phage clone 12 (12, 29) displaying DYSYFDLWYSDT (peptide)
chain: DYSYFDLWYSDT
modifications: not fully specified (C-terminus)
notes: Whole phage particle stood in the assay; not shown: pIII protein of M13 phage; the peptide is its N-terminal fusion
- Manders' Coefficient [6]: 0.746

B15: M13 phage clone 39 displaying YSTTMWQYLPGA (peptide)
chain: YSTTMWQYLPGA
modifications: not fully specified (C-terminus)
notes: as for B14
- Manders' Coefficient [6]: 0.677
